These results are taken from patent US20180264072A1.

For assay [1], the target named is talin in HeLa cells (UniProt Q9Y490). Put plainly: cell-based or functional assay.
For assay [2], the target named is talin H1-H4. Put plainly: ITC; talin H1-H4 in the cell, IpaA VBS3 peptide as titrant.
Assay [3] has as its target talin H1-H4. Put plainly: isothermal titration calorimetry.
Assay [4] addresses talin H1-H4. Put plainly: isothermal titration calorimetry, cell talin H1-H4, titrant talin H46 (VBS3).
Assay [5] concerns the target talin H1-H4. Nature of the assay: ITC; HVD1:A483 equimolar complex in the cell, talin H1-H4 as titrant.
Assay [6] has as its target talin H1-H4. Nature of the assay: size exclusion chromatography; stoichiometry listed for the ternary complex.
Assay [7] deals with talin H1-H4. Nature of the assay: ITC; talin H1-H4 in the cell, IpaA VBS1 peptide as titrant.
Assay [8] has as its target talin H1-H4. Nature of the assay: ITC; A524 in the cell, talin H1-H4 as titrant.
Assay [9] deals with talin H1-H4. Nature of the assay: size exclusion chromatography; stoichiometry listed for the complex.
Assay [10] addresses T1, vinculin in C2.7 mouse myoblast cells (mouse) (UniProt Q64727).
T1 sequence: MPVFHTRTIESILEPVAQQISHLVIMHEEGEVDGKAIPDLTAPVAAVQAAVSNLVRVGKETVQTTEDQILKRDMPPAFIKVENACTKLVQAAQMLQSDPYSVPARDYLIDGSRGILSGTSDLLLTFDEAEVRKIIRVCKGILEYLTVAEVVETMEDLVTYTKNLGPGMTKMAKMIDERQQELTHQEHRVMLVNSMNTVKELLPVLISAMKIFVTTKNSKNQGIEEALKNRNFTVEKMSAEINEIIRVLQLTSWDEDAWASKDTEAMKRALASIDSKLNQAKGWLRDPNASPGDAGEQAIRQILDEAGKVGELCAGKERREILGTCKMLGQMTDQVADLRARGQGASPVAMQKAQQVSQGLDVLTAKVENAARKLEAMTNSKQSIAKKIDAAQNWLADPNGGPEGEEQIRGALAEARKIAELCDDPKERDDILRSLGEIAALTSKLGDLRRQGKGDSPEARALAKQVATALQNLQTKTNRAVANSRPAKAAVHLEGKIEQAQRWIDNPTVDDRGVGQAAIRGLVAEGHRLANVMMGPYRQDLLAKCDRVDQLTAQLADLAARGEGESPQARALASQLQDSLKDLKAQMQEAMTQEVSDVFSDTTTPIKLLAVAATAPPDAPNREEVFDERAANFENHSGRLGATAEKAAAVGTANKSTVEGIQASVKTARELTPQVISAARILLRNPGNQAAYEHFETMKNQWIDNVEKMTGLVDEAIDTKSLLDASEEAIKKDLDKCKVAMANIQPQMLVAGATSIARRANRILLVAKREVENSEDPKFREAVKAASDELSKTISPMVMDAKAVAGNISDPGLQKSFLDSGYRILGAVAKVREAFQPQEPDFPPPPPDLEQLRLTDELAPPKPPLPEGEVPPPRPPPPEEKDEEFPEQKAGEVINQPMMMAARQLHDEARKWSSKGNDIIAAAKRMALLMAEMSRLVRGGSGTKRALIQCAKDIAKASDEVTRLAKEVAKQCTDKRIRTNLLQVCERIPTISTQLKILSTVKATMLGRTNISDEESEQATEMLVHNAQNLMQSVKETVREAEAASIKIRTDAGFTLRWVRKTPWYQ
Put plainly: cell-based or functional assay.

The target in assay [11] is talin H1-H4. Nature of the assay: ITC; A483 in the cell, talin H1-H4 as titrant.

talin H1-H4, sequence (P26039 482-636): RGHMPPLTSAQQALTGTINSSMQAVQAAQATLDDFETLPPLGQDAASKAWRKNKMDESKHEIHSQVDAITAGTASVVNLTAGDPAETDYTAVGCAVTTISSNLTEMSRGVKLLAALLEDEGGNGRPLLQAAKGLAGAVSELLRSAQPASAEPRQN
IpaA 524-633 (A524), sequence (P18010 524-633 limits assumed): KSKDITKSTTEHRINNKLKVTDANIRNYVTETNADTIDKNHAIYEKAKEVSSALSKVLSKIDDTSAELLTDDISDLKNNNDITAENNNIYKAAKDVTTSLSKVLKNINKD
GFP-A483, sequence (P18010 483-633): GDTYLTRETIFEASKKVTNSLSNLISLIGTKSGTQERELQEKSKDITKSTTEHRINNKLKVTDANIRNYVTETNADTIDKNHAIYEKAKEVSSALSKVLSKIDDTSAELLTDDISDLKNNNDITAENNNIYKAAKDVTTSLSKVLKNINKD
A483:HVD1 complex, sequence (P18010 483-633 limits assumed): as the sequence (P18010 483-633) above
IpaA 483-633 (A483), sequence (P18010 483-633 limits assumed): as the sequence (P18010 483-633) above
talin in HeLa cells, sequence (Q9Y490 whole entry): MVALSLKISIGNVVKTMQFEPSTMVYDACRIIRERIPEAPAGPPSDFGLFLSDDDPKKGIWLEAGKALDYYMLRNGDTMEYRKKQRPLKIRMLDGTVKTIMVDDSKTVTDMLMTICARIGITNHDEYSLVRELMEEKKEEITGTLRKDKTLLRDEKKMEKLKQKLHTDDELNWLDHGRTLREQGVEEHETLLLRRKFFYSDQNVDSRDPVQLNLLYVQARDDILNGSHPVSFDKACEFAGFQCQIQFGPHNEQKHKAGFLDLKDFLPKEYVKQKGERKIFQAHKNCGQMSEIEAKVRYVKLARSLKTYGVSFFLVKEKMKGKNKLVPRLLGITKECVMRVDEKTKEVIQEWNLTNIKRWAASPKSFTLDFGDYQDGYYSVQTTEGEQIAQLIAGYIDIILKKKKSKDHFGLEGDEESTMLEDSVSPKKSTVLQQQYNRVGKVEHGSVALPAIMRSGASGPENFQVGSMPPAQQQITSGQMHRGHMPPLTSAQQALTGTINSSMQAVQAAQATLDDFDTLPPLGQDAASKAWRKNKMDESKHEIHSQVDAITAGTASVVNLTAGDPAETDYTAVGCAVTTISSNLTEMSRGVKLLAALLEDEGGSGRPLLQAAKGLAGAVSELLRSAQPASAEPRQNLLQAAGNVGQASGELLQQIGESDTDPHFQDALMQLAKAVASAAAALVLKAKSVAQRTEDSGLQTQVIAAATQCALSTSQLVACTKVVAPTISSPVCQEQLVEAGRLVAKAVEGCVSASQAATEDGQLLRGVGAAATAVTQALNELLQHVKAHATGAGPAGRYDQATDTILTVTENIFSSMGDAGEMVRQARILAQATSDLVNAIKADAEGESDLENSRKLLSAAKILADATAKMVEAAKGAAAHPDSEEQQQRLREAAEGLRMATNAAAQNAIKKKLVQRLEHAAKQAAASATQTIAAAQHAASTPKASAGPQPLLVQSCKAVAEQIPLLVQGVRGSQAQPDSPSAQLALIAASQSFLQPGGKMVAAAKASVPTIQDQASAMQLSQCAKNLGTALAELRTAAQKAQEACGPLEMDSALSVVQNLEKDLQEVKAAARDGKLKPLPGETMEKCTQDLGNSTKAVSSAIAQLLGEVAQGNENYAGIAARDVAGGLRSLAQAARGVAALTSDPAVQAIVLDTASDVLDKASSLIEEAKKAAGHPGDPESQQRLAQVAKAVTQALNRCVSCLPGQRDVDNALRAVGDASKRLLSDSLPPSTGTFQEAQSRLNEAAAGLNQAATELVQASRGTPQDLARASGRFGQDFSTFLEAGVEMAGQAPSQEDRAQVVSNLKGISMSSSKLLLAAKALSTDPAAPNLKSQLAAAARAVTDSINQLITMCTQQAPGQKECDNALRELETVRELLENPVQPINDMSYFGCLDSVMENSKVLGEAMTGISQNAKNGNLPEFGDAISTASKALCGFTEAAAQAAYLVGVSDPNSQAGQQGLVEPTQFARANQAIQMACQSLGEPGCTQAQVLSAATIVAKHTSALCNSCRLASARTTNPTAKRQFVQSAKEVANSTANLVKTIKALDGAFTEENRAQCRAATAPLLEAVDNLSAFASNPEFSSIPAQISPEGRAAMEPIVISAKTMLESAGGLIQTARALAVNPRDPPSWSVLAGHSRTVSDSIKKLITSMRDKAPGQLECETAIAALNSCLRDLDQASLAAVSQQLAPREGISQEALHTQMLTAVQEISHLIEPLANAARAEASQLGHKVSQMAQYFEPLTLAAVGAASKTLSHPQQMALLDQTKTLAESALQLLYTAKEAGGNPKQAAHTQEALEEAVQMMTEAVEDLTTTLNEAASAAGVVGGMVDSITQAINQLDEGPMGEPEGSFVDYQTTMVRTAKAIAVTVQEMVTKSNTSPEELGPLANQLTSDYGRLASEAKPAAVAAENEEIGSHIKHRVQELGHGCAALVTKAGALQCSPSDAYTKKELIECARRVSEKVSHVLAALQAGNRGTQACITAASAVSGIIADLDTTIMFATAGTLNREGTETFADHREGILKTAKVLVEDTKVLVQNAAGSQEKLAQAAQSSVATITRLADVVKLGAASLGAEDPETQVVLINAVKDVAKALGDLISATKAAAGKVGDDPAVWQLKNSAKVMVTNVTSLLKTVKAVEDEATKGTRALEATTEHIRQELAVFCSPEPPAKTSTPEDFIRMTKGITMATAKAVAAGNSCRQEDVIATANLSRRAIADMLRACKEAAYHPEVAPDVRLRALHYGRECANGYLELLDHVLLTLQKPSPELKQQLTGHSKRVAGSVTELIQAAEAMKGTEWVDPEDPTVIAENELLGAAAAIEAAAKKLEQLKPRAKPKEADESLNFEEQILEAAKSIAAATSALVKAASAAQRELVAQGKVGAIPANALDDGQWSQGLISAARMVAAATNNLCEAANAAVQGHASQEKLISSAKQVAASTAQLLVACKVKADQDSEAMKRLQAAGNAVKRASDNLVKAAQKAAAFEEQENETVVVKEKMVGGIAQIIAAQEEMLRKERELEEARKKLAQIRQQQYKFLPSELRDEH
IpaA full length, sequence (P18010 whole entry): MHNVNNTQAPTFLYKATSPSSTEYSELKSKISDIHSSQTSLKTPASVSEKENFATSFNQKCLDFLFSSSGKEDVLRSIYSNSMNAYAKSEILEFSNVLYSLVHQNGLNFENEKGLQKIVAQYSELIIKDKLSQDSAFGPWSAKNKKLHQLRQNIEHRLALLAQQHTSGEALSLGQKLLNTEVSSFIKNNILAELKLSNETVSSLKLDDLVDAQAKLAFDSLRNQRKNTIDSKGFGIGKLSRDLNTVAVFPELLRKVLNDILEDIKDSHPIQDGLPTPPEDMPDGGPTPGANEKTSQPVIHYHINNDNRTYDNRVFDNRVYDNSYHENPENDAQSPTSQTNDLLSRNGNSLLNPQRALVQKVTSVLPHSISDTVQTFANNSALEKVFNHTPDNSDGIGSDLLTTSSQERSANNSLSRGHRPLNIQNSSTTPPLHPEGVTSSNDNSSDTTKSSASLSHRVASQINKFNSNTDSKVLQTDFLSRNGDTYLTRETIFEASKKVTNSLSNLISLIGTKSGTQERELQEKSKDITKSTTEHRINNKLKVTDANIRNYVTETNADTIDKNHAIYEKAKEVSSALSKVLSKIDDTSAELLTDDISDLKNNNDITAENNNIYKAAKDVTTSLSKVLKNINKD

As for “IpaA full length (from UniProt P18010 1-633)”, the percentage of foci forming talin coat structures in assay [1] is 52%.
In assay [2], IpaA VBS3/TBS peptide displayed a -TΔS of -2.83 kcal/mol, a Kd of 0.175 µM, a N (stoichiometry) of 0.893 and a ΔG of -9.22 kcal/mol. For the same substance, in assay [2], the ΔH was -6.39 kcal/mol. In assay [3], the -TΔS is -1.53 kcal/mol, the Kd is 0.15 µM and the ΔG was -9.07 kcal/mol.
In [4], “talin H46 (talin VBS3) α-helix (peptide)” gave an N of 0.92 and a ΔG of -9.97 kcal/mol. In assay [3], this substance came in with a -TΔS of 7.2 kcal/mol, a Kd of 0.06 µM and a ΔH of -17 kcal/mol.
In [5], “A483:HVD1 complex (from UniProt P18010 483-633; P18206 1-258)” came in with a -TΔS of -1.37 kcal/mol, a N (stoichiometry) of 0.459, a ΔG of -7.68 kcal/mol and a ΔH of -9.05 kcal/mol. The substance further showed a -TΔS in [3] of 1.37 kcal/mol. In [6], this substance had a stoichiometry of 1.
In assay [7], IpaA VBS1 peptide came in with a -TΔS of -2.47 kcal/mol, a Kd of 15.2 µM, a N (stoichiometry) of 1.22 and a ΔG of -6.58 kcal/mol. The substance further returned a ΔH in assay [7] of -4.1 kcal/mol.
In [8], “IpaA 524-633 (A524) (from UniProt P18010 524-633)” showed a -TΔS of -3.47 kcal/mol, a Kd of 2.03 µM, a N (stoichiometry) of 1.5 and a ΔG of -7.45 kcal/mol. The substance further returned a ΔH in assay [8] of -3.98 kcal/mol. The stoichiometry (molar ratio of the complex (1:1)) in assay [9] is 1.
In [10], GFP-A483 (from UniProt P18010 483-633) had an adhesion stress σ=F/A at detachment, parallel plates of 6.5 nN/µm^2; a median cell surface of 1850 µm^2; a median time between two divisions (second group of GFP-A483 cells) of 17.1 h; a median velocity of migration of 30.7 µm/hour. This substance also displayed a rate of single-cell traction force generation (dF/dt), parallel plates in assay [10] of 0.4.
Regarding “IpaA 483-633 (A483) (from UniProt P18010 483-633)”, the stoichiometry (molar ratio of the complex (1:1)) in assay [9] is 1. In assay [11], this substance had a -TΔS of -3.8 kcal/mol, a Kd of 0.0249 µM, a N (stoichiometry) of 1 and a ΔG of -10 kcal/mol. The substance further came in with a ΔH in assay [11] of -6.23 kcal/mol.
